Assay results as given in article PMC3730230.
Values joined by “and” are separate entries in the source; they are usually repeats but may differ in a detail not shown here. Equal values may be shown once.

Molecular target: EGFR 1045+ add-back mutant (pY-null 9Y- backbone with Y1045 added back) (human) (UniProt P00533)
Assay: co-IP

Substance: Cbl, endogenous in NR6 cells (from UniProt P22682 1-913) (enzyme)
- fold reduction of association against EGFR-WT: 4 fold and 5 fold
